For series [1], the target named is T1, BmSTPR (FMBP-1 STPR domain) (Bombyx mori, UniProt Q5FBS0 99-193).
T1 sequence: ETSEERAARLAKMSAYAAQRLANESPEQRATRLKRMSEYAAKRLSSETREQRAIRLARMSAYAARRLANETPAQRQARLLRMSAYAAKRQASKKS
In words: ITC. Background: ITC needs no label: the signal is the heat of the interaction.

The target in series [2] is T1, BmSTPR (FMBP-1 STPR domain). In words: X-ray crystal structure.
Series [3] concerns the target T2, BmSTPR with R1 deleted (R2-R4) (Bombyx mori, UniProt Q5FBS0 122-193).
T2 sequence: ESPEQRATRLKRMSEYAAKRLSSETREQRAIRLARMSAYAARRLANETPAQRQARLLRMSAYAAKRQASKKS
Nature of the series: ITC.

Four molecules from PMC4856987 can be followed below.

As a reminder, the Kd is a measure of binding affinity in units of concentration. A high value points to lower affinity.

B1: (auac/gtat)4 (dsDNA)
DNA 1: AUACAUACAUACAUAC
DNA 2: GTATGTATGTATGTAT
modifications: t2 of each unit to (deoxy)uridylate
As to B1, the Kd in series [1] was determined as 183 nM.

B2: 18-bp DNA, (atac)4 plus one terminal nt each side (dsDNA)
DNA 1: CATACATACATACATACA
DNA 2: TGTATGTATGTATGTATG
Regarding B2, the binding result in series [2] is “binds”.

B3: (gcca)3 (dsDNA)
DNA 1: GCCAGCCAGCCA
DNA 2: TGGCTGGCTGGC
Molecule B3 came in with a Kd in series [1] of 44600 ± 14300 nM.

B4: 20-bp (+290) (dsDNA)
DNA 1: AGTATTTACATAGATTCATC
DNA 2: GATGAATCTATGTAAATACT
On to B4, for which, in series [3], binding was put at a Kd of 547 nM.
